Measured values taken from paper PMC11686378, “Communication between DNA polymerases and Replication Protein A within the archaeal replisome” (Nature Communications, 2024).

B1: Histidine-tagged Rpa2^WH (Rpa2 residues 178-268), C-terminal winged-helix domain of P. abyssi Rpa2 (domain or fragment)
chain: MGKHHHHSGHHHTGHHHHSGSHHHTSSSASTGENLYFQGTGGIMMEERSIEEPMEELLEEEIPEEKEENELLEKAKEDILNILRQKRTAISRKYILKKLGDKYDEETIDDAITELLAQGEIYEPETGYYKLL
B2: DNA primase PriSL (PriS-PriL heterodimer) from P. abyssi, in solution (complex, Pyrococcus abyssi)
chain 1: MLLREVTKEERKEFYSNEWNAKQIPDFILQNLDKREFGFDHTGEGPSDRKNSYTDVRDLEDYIKATAPYAVYSSVAFYEKPQEMEGWLGAELVFDIDAKDLPLRRCNHEPGKVCPICLNDAKEIARDTLIVLKEELGFEDVHVVYSGRGYHIRVMDGWALSLDSKSRERILSFISASEIEDHSEFRKMLLERRGWFVLNHGYPRVFRLRFGYFILRVKVEHLINFGIRKNIAKRILDNKETIYEEFVRKGILAAFPDGVGIESLAKLFALSTRFSKAYFDGRVTVDLKRILRLPSTLHSKVGLIAKYIGNNERDVMRFNPFKHAVPKFRRKEVKEEYKRFLEENF
chain 2: MLDPFSEKAKELLKEFGSINDFLNSIPRIVDVEEVIERVKIASDRKLLEGFVDIEDIKDLAQFYALLGALSYSPYGLELELVKKANILLYSERIRREKEIRPEEISLRINKAIEFPIDDLKKIERVFGKLPEYTIHLAEFLDLIPGERLSEYYIYNGNVYLRKEDLIKVWMKAFERNIEKSVNMLYEIRDELPGFFREVLGGIKEVAEQEFGKSGEVKAGTLRPDLFPPCVKNALKGVPQGLRNYAITVLLTSFLSYARICPNPPRRNVRVKDCIDDIRIITDEILPLIIEAANRCSPPLFEDQPNEIKNIWYHLGFGYTANPKLEDSGNSTWYFPPNCDKIRANAPQLCTPDKHCKYVRNPLTYYLRRLYLEGRKNASKGGNERGEKRVLQQ
notes: PriS, catalytic small subunit of the DNA primase, Pyrococcus abyssi; PriL, large subunit of the DNA primase, Pyrococcus abyssi, with its C-terminal 4Fe-4S domain; Analyte in BLI on His-Rpa2^WH and on RPA-ssDNA filaments; also called full-length PriSL; source: E. coli BL21 Star (DE3), polycistronic PriS-PriL, purified (heat 60 °C, HisTrap, heparin, SEC)

Experiments:
Details in all cases: both partners purified
[1] = biological target: B2; assay: BLI; histidine-tagged Rpa2^WH captured on Ni-NTA sensors; PriSL (7.81-500 nM) or PolD (15.62-1000 nM) in solution; steady-state analysis; 25 °C, buffer E with 0.2 mg/ml BSA
[2] = biological target: T1, Replicative DNA polymerase PolD (DP1-DP2 heterodimer) from P. abyssi, in solution (Pyrococcus abyssi); assay: as above
T1 construct: DP1, proofreading small subunit of DNA polymerase D, Pyrococcus abyssi; DP2, polymerization large subunit of DNA polymerase D, Pyrococcus abyssi; also called unlabeled PolD; source: E. coli BL21 Star (DE3), purified (heat 60 °C, HisTrap, heparin, SEC)

[3] = biological target: T2, RPA^ΔWH (Rpa1/Rpa2(1-179)/Rpa3), RPA lacking the winged-helix domain of Rpa2 (Pyrococcus abyssi); assay: BLI; RPA or RPA^ΔWH nucleoprotein filaments on a 3'-TEG-biotin 50-nt ssDNA held on streptavidin sensors; PriSL (1.56-100 nM) or PolD (15.62-1000 nM) in solution; steady-state analysis; 25 °C, buffer E with 0.2 mg/ml BSA
T2 chain 1: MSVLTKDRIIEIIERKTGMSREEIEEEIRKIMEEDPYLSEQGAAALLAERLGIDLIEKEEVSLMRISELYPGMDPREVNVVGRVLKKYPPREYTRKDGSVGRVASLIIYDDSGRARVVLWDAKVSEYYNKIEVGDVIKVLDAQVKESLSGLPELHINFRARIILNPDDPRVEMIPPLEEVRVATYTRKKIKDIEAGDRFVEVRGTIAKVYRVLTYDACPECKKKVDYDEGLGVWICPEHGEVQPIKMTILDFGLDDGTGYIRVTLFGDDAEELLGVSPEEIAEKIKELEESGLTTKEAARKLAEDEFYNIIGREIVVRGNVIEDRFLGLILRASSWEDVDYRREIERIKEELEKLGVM
T2 chain 2: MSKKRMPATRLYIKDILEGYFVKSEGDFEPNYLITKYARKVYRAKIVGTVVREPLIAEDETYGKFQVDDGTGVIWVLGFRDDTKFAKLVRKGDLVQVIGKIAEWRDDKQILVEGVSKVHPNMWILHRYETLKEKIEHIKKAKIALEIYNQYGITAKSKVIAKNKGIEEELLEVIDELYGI
T2 chain 3: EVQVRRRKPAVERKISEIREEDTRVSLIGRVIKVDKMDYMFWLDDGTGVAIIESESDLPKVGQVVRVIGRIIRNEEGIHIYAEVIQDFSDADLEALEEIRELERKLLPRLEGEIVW

| Binder | Kd [1] | Kd [2] | fold weaker interaction than with wild-type RPA filaments (at 12.5 nM PriSL) [3] |
| --- | --- | --- | --- |
| B1 | 25 ± 9 nM | 98 ± 49 nM |  |
| B2 |  |  | 7 fold |
